PMC12241633, “Irinotecan alleviates chemoresistance to anthracyclines through the inhibition of AARS1-mediated BLM lactylation and homologous recombination repair” (Signal Transduction and Targeted Therapy, 2025)

B1: purified human BLM-WT protein (natural protein)
chain: not shown
notes: BLM, human; also called WT BLM; source: E. coli BL21 (DE3), pET28a-sumo, purified (AKTA pure chromatography)
B2: purified human BLM-K24R protein (natural protein)
chain: not shown
notes: BLM, human, K24R; also called K24R BLM; BLM-K24R mutant; source: E. coli BL21 (DE3), pET28a-sumo, purified (AKTA pure chromatography)

Target: T1, purified human MIB1 protein (human, UniProt Q86YT6 1-1006)
T1 construct: MIB1, human; source: E. coli BL21 (DE3), pET28a-sumo, purified (AKTA pure chromatography)
Test: SPR; Biacore T200, CM5 chip, amine coupling in 10 mM sodium acetate pH 4.0 to 5000 RU, 25 °C, running buffer PBS, 0.05% Tween-20, 1% DMSO; multicycle kinetics, 1:1 Langmuir fit; which of the two proteins was immobilised is not stated
Details: both partners purified

T1 sequence (Q86YT6 whole entry): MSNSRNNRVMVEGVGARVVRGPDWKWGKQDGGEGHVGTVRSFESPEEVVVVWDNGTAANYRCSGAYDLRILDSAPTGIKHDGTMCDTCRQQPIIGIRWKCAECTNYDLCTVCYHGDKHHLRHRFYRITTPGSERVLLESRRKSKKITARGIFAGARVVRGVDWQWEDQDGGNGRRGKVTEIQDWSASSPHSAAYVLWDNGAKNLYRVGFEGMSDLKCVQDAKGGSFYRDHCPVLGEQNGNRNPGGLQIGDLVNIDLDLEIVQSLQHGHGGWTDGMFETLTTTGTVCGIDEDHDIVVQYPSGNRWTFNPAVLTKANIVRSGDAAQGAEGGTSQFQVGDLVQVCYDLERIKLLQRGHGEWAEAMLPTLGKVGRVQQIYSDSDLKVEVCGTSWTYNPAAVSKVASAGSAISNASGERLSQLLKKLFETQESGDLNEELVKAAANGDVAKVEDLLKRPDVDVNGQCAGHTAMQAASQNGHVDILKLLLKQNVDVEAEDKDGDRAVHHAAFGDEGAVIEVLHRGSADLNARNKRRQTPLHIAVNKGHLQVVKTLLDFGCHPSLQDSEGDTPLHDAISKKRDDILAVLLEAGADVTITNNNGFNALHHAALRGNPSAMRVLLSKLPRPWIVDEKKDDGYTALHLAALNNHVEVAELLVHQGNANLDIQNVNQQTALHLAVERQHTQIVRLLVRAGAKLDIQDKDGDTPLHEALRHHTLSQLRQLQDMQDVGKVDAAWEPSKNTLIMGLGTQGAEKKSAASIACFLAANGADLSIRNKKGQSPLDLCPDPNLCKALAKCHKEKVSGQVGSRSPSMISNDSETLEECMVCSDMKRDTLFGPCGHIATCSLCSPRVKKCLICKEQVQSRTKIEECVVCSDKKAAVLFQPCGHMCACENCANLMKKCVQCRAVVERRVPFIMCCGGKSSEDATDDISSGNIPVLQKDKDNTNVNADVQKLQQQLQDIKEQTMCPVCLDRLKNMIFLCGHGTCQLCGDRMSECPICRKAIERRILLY

| Binder | Kd [µM] |
| --- | --- |
| B1 | 0.121 |
| B2 | 0.0268 |
